Results: article doi:10.1101/581934

B1: MARs DNA 16mer (dsDNA)
DNA 1: GTGCAGGTGTCCTTAA
DNA 2: TTAAGGACACCTGCAC
B2: Mutated MARs DNA 16mer (dsDNA)
DNA 1: GCCCTGGTGTAGTGGC
DNA 2: GCCACTACACCAGGGC

Target: MeCP2-MBD WT (Homo sapiens, UniProt P51608 80-164)
Test: ITC

Chain of MeCP2-MBD WT (P51608 80-164): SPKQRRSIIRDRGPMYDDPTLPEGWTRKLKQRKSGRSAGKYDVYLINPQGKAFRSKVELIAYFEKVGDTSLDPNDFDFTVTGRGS

| Binder | Kd [µM] |
| --- | --- |
| B1 | 2.8 ± 0.2 |
| B2 | 3.8 ± 0.7 |
